System: Escherichia coli TOP10
Assay: shrunken log2 fold change of peptide-encoding DNA abundance (4.5 h post-induction vs induction); higher = less antimicrobial activity (less host growth inhibition)
Details: time post-induction: 4.5 h; library: site-saturation at positions 5, 18, 19, 20
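Further: peptides expressed intracellularly from a pBAD plasmid library in pooled LB shake-flask culture, induced with 0.3% L-arabinose, DNA abundance read by NGS, three biological replicates, DESeq2 with apeglm shrinkage.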

Row | Sequence | shrunken log2 fold change
1 | RRIRKRPPRLPRPRPRPRSYPRP | -0.134
2 | RRIRKRPPRLPRPRPRPRTAPRP | 0.843
3 | RRIRKRPPRLPRPRPRPRTLPRP | 0.454
4 | RRIRKRPPRLPRPRPRPRTPPRP | 0.714
5 | RRIRKRPPRLPRPRPRPRTYPRP | 0.0895
6 | RRIRKRPPRLPRPRPRPRVKPRP | -0.0843
7 | RRIRKRPPRLPRPRPRPRWLPRP | 0.796
8 | RRIRKRPPRLPRPRPRPSAMPRP | 0.664
9 | RRIRKRPPRLPRPRPRPSANPRP | 0.0126
10 | RRIRKRPPRLPRPRPRPSAVPRP | 0.0941
11 | RRIRKRPPRLPRPRPRPSCYPRP | -0.0656
12 | RRIRKRPPRLPRPRPRPSDSPRP | -0.132
13 | RRIRKRPPRLPRPRPRPSEGPRP | 0.0116
14 | RRIRKRPPRLPRPRPRPSFMPRP | 1.94
15 | RRIRKRPPRLPRPRPRPSFRPRP | -0.294
16 | RRIRKRPPRLPRPRPRPSGPPRP | 0.0366
17 | RRIRKRPPRLPRPRPRPSHAPRP | 0.155
18 | RRIRKRPPRLPRPRPRPSHKPRP | -0.262
19 | RRIRKRPPRLPRPRPRPSLHPRP | 0.0624
20 | RRIRKRPPRLPRPRPRPSLRPRP | -0.278
21 | RRIRKRPPRLPRPRPRPSMAPRP | 0.0554
22 | RRIRKRPPRLPRPRPRPSPGPRP | 0.26
23 | RRIRKRPPRLPRPRPRPSQEPRP | -0.0223
24 | RRIRKRPPRLPRPRPRPSQVPRP | 0.31
25 | RRIRKRPPRLPRPRPRPSRNPRP | -0.0207

Row | Sequence | shrunken log2 fold change
26 | RRIRKRPPRLPRPRPRPSRPPRP | 0.529
27 | RRIRKRPPRLPRPRPRPSSWPRP | 0.147
28 | RRIRKRPPRLPRPRPRPSTEPRP | 0.136
29 | RRIRKRPPRLPRPRPRPSTIPRP | -0.0803
30 | RRIRKRPPRLPRPRPRPSWCPRP | -0.152
31 | RRIRKRPPRLPRPRPRPSYHPRP | 2.31
32 | RRIRKRPPRLPRPRPRPSYMPRP | -0.0995
33 | RRIRKRPPRLPRPRPRPTCHPRP | 0.169
34 | RRIRKRPPRLPRPRPRPTCWPRP | 0.499
35 | RRIRKRPPRLPRPRPRPTFNPRP | -0.344
36 | RRIRKRPPRLPRPRPRPTGHPRP | 0.348
37 | RRIRKRPPRLPRPRPRPTGMPRP | 0.128
38 | RRIRKRPPRLPRPRPRPTGNPRP | 0.563
39 | RRIRKRPPRLPRPRPRPTITPRP | -0.1
40 | RRIRKRPPRLPRPRPRPTKNPRP | 0.392
41 | RRIRKRPPRLPRPRPRPTKRPRP | 0.697
42 | RRIRKRPPRLPRPRPRPTLSPRP | 0.0214
43 | RRIRKRPPRLPRPRPRPTMAPRP | 0.638
44 | RRIRKRPPRLPRPRPRPTMGPRP | -0.0139
45 | RRIRKRPPRLPRPRPRPTMKPRP | -0.0364
46 | RRIRKRPPRLPRPRPRPTMRPRP | 1.02
47 | RRIRKRPPRLPRPRPRPTNLPRP | -0.0903
48 | RRIRKRPPRLPRPRPRPTPHPRP | 0.653
49 | RRIRKRPPRLPRPRPRPTQMPRP | 0.8
50 | RRIRKRPPRLPRPRPRPTQYPRP | 0.0924

Row | Sequence | shrunken log2 fold change
51 | RRIRKRPPRLPRPRPRPTREPRP | 0.48
52 | RRIRKRPPRLPRPRPRPTRHPRP | 0.482
53 | RRIRKRPPRLPRPRPRPTTQPRP | 0.196
54 | RRIRKRPPRLPRPRPRPTVNPRP | 0.402
55 | RRIRKRPPRLPRPRPRPTVRPRP | 0.899
56 | RRIRKRPPRLPRPRPRPTWTPRP | 0.0915
57 | RRIRKRPPRLPRPRPRPTYFPRP | -0.817
58 | RRIRKRPPRLPRPRPRPVAQPRP | 0.541
59 | RRIRKRPPRLPRPRPRPVCEPRP | 0.552
60 | RRIRKRPPRLPRPRPRPVDMPRP | -0.122
61 | RRIRKRPPRLPRPRPRPVEPPRP | 0.505
62 | RRIRKRPPRLPRPRPRPVFKPRP | 0.288
63 | RRIRKRPPRLPRPRPRPVGDPRP | 0.247
64 | RRIRKRPPRLPRPRPRPVGPPRP | 0.441
65 | RRIRKRPPRLPRPRPRPVKHPRP | -0.0571
66 | RRIRKRPPRLPRPRPRPVKLPRP | -0.0408
67 | RRIRKRPPRLPRPRPRPVLIPRP | -0.141
68 | RRIRKRPPRLPRPRPRPVLPPRP | 0.338
69 | RRIRKRPPRLPRPRPRPVLQPRP | -0.0875
70 | RRIRKRPPRLPRPRPRPVNRPRP | 0.0352
71 | RRIRKRPPRLPRPRPRPVPKPRP | 0.289
72 | RRIRKRPPRLPRPRPRPVPRPRP | 0.72
73 | RRIRKRPPRLPRPRPRPVQRPRP | 0.0869
74 | RRIRKRPPRLPRPRPRPVRCPRP | 0.746
75 | RRIRKRPPRLPRPRPRPVRLPRP | 0.203

Row | Sequence | shrunken log2 fold change
76 | RRIRKRPPRLPRPRPRPVSDPRP | 0.156
77 | RRIRKRPPRLPRPRPRPVTCPRP | -0.0146
78 | RRIRKRPPRLPRPRPRPVVQPRP | 0.242
79 | RRIRKRPPRLPRPRPRPVWDPRP | 2.04
80 | RRIRKRPPRLPRPRPRPVWFPRP | 0.142
81 | RRIRKRPPRLPRPRPRPVWIPRP | 0.0328
82 | RRIRKRPPRLPRPRPRPVYQPRP | 0.131
83 | RRIRKRPPRLPRPRPRPVYTPRP | -0.356
84 | RRIRKRPPRLPRPRPRPWAKPRP | 0.0651
85 | RRIRKRPPRLPRPRPRPWARPRP | 0.704
86 | RRIRKRPPRLPRPRPRPWAYPRP | -0.228
87 | RRIRKRPPRLPRPRPRPWECPRP | 0.033
88 | RRIRKRPPRLPRPRPRPWFNPRP | -0.209
89 | RRIRKRPPRLPRPRPRPWGNPRP | -0.0638
90 | RRIRKRPPRLPRPRPRPWIKPRP | -0.00314
91 | RRIRKRPPRLPRPRPRPWILPRP | -0.14
92 | RRIRKRPPRLPRPRPRPWKCPRP | -0.0018
93 | RRIRKRPPRLPRPRPRPWKFPRP | 0.0297
94 | RRIRKRPPRLPRPRPRPWPSPRP | 0.0175
95 | RRIRKRPPRLPRPRPRPWQLPRP | -0.00277
96 | RRIRKRPPRLPRPRPRPWTQPRP | 0.0628
97 | RRIRKRPPRLPRPRPRPYAMPRP | 0.202
98 | RRIRKRPPRLPRPRPRPYAYPRP | -0.12
99 | RRIRKRPPRLPRPRPRPYCLPRP | -0.17
100 | RRIRKRPPRLPRPRPRPYCQPRP | -0.773

Row | Sequence | shrunken log2 fold change
101 | RRIRKRPPRLPRPRPRPYCWPRP | -0.315
102 | RRIRKRPPRLPRPRPRPYDWPRP | -0.0468
103 | RRIRKRPPRLPRPRPRPYEIPRP | -0.0117
104 | RRIRKRPPRLPRPRPRPYGIPRP | -0.329
105 | RRIRKRPPRLPRPRPRPYHKPRP | 0.0411
106 | RRIRKRPPRLPRPRPRPYIHPRP | -0.227
107 | RRIRKRPPRLPRPRPRPYKVPRP | -0.558
108 | RRIRKRPPRLPRPRPRPYMEPRP | -0.0534
109 | RRIRKRPPRLPRPRPRPYMMPRP | -0.103
110 | RRIRKRPPRLPRPRPRPYMPPRP | -0.315
111 | RRIRKRPPRLPRPRPRPYMTPRP | -0.0252
112 | RRIRKRPPRLPRPRPRPYNNPRP | -0.286
113 | RRIRKRPPRLPRPRPRPYPKPRP | 0.109
114 | RRIRKRPPRLPRPRPRPYQEPRP | 0.0431
115 | RRIRKRPPRLPRPRPRPYRIPRP | -0.0846
116 | RRIRKRPPRLPRPRPRPYRWPRP | -0.164
117 | RRIRKRPPRLPRPRPRPYRYPRP | -0.14
118 | RRIRKRPPRLPRPRPRPYTQPRP | -0.0811
119 | RRIRKRPPRLPRPRPRPYVEPRP | -1.51
120 | RRIRLRPPRLPRPRPRPAAAPRP | 1.04
121 | RRIRLRPPRLPRPRPRPAAIPRP | -0.0299
122 | RRIRLRPPRLPRPRPRPAAMPRP | 0.158
123 | RRIRLRPPRLPRPRPRPACTPRP | -0.128
124 | RRIRLRPPRLPRPRPRPACVPRP | 0.131
125 | RRIRLRPPRLPRPRPRPADDPRP | -0.088

Row | Sequence | shrunken log2 fold change
126 | RRIRLRPPRLPRPRPRPADMPRP | -0.445
127 | RRIRLRPPRLPRPRPRPAEYPRP | -0.0275
128 | RRIRLRPPRLPRPRPRPAFFPRP | 0.406
129 | RRIRLRPPRLPRPRPRPAFKPRP | -0.195
130 | RRIRLRPPRLPRPRPRPAHQPRP | -0.0828
131 | RRIRLRPPRLPRPRPRPAICPRP | 0.207
132 | RRIRLRPPRLPRPRPRPAKEPRP | -0.049
133 | RRIRLRPPRLPRPRPRPAKYPRP | -0.694
134 | RRIRLRPPRLPRPRPRPAMEPRP | -0.0355
135 | RRIRLRPPRLPRPRPRPAMHPRP | 0.0794
136 | RRIRLRPPRLPRPRPRPANVPRP | -0.304
137 | RRIRLRPPRLPRPRPRPAPEPRP | 0.109
138 | RRIRLRPPRLPRPRPRPAQGPRP | 0.376
139 | RRIRLRPPRLPRPRPRPASWPRP | 0.454
140 | RRIRLRPPRLPRPRPRPATQPRP | 0.00742
141 | RRIRLRPPRLPRPRPRPATYPRP | -0.212
142 | RRIRLRPPRLPRPRPRPAVDPRP | 0.163
143 | RRIRLRPPRLPRPRPRPAVKPRP | -0.131
144 | RRIRLRPPRLPRPRPRPAWFPRP | 0.103
145 | RRIRLRPPRLPRPRPRPAYKPRP | -0.00989
146 | RRIRLRPPRLPRPRPRPCALPRP | -0.0607
147 | RRIRLRPPRLPRPRPRPCDTPRP | -0.131
148 | RRIRLRPPRLPRPRPRPCEHPRP | -0.00776
149 | RRIRLRPPRLPRPRPRPCEKPRP | -0.00674
150 | RRIRLRPPRLPRPRPRPCFAPRP | 0.179
